{"source": "paper PMC12781872", "about": "“Differential association of primary and alternative σ factors with RNA polymerase of Mycobacterium tuberculosis during transcription elongation” (Nucleic Acids Research, 2026)", "binders": {"B1": {"name": "Alexafluor-488 labelled Mtb σ^A (natural protein)", "chain": "MAATKASTATDEPVKRTATKSPAASASGAKTGAKRTAAKSASGSPPAKRATKPAARSVKPASAPQDTTTSTIPKRKTRAAAKSAAAKAPSARGHATKPRAPKDAQHEAATDPEDALDSVEELDAEPDLDVEPGEDLDLDAADLNLDDLEDDVAPDADDDLDSGDDEDHEDLEAEAAVAPGQTADDDEEIAEPTEKDKASGDFVWDEDESEALRQARKDAELTASADSVRAYLKQIGKVALLNAEEEVELAKRIEAGLYATQLMTELSERGEKLPAAQRRDMMWICRDGDRAKNHLLEANLRLVVSLAKRYTGRGMAFLDLIQEGNLGLIRAVEKFDYTKGYKFSTYATWWIRQAITRAMADQARTIRIPVHMVEVINKLGRIQRELLQDLGREPTPEELAKEMDITPEKVLEIQQYAREPISLDQTIGDEGDSQLGDFIEDSEAVVAVDAVSFTLLQDQLQSVLDTLSEREAGVVRLRFGLTDGQPRTLDEIGQVYGVTRERIRQIESKTMSKLRHPSRSQVLRDYLD", "notes": "also called AF488 labelled σ^A; σ^A-488"}, "B2": {"name": "TMR-labelled Mtb σ^F (wild type, labelled at the natural cysteine, residue 47 of σ2) (natural protein)", "chain": "MTARAAGGSASRANEYADVPEMFRELVGLPAGSPEFQRHRDKIVQRCLPLADHIARRFEGRGEPRDDLIQVARVGLVNAAVRFDVKTGSDFVSFAVPTIMGEVRRHFRDNSWSVKVPRRLKELHLRLGTATADLSQRLGRAPSASELAAELGMDRAEVIEGLLAGSSYHTLSIDSGGGSDDDARAITDTLGDVDAGLDQIENREVLRPLLEALPERERTVLVLRFFDSMTQTQIAERVGISQMHVSRLLAKSLARLRDQLE", "notes": "also called TMR-labelled σ^F; σ^F labelled with TMR at region 2"}, "B3": {"name": "TMR-labelled Mtb σ^E used in EMSA and anisotropy assays (natural protein)", "chain": "MELLGGPRVGNTESQLCVADGDDLPTYCSANSEDLNITTITTLSPTSMSHPQQVRDDQWVEPSDQLQGTAVFDATGDKATMPSWDELVRQHADRVYRLAYRLSGNQHDAEDLTQETFIRVFRSVQNYQPGTFEGWLHRITTNLFLDMVRRRARIRMEALPEDYDRVPADEPNPEQIYHDARLGPDLQAALASLPPEFRAAVVLCDIEGLSYEEIGATLGVKLGTVRSRIHRGRQALRDYLAAHPEHGECAVHVNPVR", "notes": "also called TMR-labelled σ^E; labelled σ^E"}}, "target": "T1, Mycobacterium tuberculosis RNA polymerase core (α2ββ'ω), wildtype (Mycobacterium tuberculosis, UniProt P9WGZ1;P9WGY9;P9WGY7;P9WGY5)", "T1 construct": "also called Mtb RNAP core; unlabelled RNAP core; copies: 2 + + +", "T1 sequence (P9WGZ1 whole entry, chain 1 of 4)": "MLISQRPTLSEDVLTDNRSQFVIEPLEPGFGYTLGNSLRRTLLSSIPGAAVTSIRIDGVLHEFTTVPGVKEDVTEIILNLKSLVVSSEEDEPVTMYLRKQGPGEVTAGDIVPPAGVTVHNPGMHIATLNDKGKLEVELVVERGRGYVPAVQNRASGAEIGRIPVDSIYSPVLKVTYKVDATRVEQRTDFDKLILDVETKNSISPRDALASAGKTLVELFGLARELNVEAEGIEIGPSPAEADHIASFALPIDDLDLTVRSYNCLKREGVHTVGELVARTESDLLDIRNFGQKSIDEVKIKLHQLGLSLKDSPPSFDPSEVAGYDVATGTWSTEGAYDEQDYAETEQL", "T1 sequence (P9WGY9 whole entry, chain 2 of 4)": "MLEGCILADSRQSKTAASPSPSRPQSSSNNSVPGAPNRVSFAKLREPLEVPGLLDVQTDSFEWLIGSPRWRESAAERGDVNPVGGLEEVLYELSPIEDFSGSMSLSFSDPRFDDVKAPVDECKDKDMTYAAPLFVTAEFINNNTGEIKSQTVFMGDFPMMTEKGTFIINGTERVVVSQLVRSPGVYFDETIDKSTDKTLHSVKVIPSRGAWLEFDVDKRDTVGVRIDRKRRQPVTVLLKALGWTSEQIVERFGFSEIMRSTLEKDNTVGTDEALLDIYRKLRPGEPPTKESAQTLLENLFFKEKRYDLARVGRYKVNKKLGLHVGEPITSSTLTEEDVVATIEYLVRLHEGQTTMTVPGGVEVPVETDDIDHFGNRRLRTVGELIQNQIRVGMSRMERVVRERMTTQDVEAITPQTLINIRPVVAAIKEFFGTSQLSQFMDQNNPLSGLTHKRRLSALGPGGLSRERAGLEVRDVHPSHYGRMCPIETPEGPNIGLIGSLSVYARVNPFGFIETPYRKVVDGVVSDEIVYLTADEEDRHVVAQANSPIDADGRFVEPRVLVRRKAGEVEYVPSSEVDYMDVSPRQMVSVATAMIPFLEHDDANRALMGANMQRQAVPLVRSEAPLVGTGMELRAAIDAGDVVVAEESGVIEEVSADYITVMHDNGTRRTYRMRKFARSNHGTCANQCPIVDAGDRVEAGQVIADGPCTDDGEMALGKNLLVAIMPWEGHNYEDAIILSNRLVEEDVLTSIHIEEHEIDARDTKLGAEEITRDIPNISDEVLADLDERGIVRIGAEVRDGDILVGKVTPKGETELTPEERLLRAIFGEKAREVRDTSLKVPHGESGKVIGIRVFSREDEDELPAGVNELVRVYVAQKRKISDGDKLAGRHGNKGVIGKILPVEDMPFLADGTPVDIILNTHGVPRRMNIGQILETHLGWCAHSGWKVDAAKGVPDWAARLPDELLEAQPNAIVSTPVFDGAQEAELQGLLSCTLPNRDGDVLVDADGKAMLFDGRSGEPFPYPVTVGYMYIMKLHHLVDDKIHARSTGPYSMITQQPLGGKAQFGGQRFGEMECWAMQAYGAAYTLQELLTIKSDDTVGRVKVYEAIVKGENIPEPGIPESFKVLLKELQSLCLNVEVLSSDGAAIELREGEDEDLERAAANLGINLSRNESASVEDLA", "T1 sequence (P9WGY7 whole entry, chain 3 of 4)": "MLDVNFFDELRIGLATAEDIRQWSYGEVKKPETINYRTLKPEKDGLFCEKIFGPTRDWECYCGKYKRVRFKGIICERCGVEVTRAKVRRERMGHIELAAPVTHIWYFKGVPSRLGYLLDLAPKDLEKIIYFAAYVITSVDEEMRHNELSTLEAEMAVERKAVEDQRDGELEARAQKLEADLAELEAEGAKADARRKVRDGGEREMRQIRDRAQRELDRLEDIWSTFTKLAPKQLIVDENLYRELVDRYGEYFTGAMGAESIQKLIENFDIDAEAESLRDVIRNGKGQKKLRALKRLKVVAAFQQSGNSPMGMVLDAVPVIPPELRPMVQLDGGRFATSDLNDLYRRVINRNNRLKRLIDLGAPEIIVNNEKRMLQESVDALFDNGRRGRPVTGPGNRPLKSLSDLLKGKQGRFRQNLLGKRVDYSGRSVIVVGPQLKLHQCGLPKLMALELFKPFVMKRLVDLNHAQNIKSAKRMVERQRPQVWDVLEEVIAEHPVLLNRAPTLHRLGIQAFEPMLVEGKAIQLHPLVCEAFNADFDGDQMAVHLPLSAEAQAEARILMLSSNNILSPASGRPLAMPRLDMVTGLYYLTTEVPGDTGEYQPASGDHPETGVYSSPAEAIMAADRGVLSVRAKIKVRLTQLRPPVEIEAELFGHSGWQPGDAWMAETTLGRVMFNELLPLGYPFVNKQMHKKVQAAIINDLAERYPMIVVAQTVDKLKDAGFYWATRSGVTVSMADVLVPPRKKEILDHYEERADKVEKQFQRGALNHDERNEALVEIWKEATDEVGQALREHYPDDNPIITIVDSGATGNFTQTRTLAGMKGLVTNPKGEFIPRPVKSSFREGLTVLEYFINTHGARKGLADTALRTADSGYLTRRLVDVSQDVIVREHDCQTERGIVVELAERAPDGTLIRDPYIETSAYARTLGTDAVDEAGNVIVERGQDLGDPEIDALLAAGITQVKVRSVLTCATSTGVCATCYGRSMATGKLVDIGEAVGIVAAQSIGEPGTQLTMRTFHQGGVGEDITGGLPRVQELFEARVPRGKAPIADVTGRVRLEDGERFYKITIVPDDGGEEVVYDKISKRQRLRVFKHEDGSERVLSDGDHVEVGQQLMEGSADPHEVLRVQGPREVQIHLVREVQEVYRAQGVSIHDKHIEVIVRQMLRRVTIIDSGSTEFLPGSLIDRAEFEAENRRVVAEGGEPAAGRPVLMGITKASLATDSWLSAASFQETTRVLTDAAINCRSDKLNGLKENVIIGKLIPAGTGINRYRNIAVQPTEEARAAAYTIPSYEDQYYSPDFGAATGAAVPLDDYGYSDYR", "T1 sequence (P9WGY5 whole entry, chain 4 of 4)": "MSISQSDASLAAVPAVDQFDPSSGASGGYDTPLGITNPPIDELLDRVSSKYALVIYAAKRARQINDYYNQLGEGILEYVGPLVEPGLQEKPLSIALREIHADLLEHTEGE", "assay": "native gel or EMSA", "settings": "both partners purified", "data": [{"binder": "B1", "values": [{"measurement": "fractional occupancy relative to RPo, at RPitc (sinP3)", "result": "~95", "unit": "%"}, {"measurement": "fractional occupancy relative to RPo, at TEC+16 (sinP3)", "result": 77, "unit": "%"}, {"measurement": "fractional occupancy relative to RPo, at TEC+23 (sinP3)", "result": 72, "unit": "%"}, {"measurement": "fractional occupancy relative to RPo, at TEC+29 (sinP3)", "result": 63, "unit": "%"}, {"measurement": "fractional occupancy relative to RPo, at TEC+59 (sinP3)", "result": 49, "unit": "%"}]}, {"binder": "B2", "values": [{"measurement": "fractional occupancy relative to RPo, at RPitc (usfXP1)", "result": "~96", "unit": "%"}, {"measurement": "fractional occupancy relative to RPo, at TEC+17 (usfXP1)", "result": 89, "unit": "%"}, {"measurement": "fractional occupancy relative to RPo, at TEC+23 (usfXP1)", "result": 87, "unit": "%"}, {"measurement": "fractional occupancy relative to RPo, at TEC+28 (usfXP1)", "result": 83, "unit": "%"}, {"measurement": "fractional occupancy relative to RPo, at TEC+64 (usfXP1)", "result": 82, "unit": "%"}]}, {"binder": "B3", "values": [{"measurement": "fractional occupancy relative to RPo, at RPitc (sigB)", "result": "~93", "unit": "%"}, {"measurement": "fractional occupancy relative to RPo, at TEC+15 (sigB)", "result": 55, "unit": "%"}, {"measurement": "fractional occupancy relative to RPo, at TEC+23 (sigB)", "result": 47, "unit": "%"}, {"measurement": "fractional occupancy relative to RPo, at TEC+27 (sigB)", "result": 45, "unit": "%"}, {"measurement": "fractional occupancy relative to RPo, at TEC+84 (sigB)", "result": 38, "unit": "%"}]}]}
